{"source": "patent US9592281B2", "about": "“Method for inducing immunity with a peptide fragment from human CAPRIN-1” (Toray Industries, Inc., priority 2008, dated 2017)", "molecules": {"B1": {"name": "monoclonal antibody against CAPRIN-1 having the heavy-chain variable region of SEQ ID NO: 78 and the light-chain variable region of SEQ ID NO: 79: mouse monoclonal antibody against human CAPRIN-1 … (antibody, listed as Mus musculus, V domains shown)", "VH": "PRASLGVSETLLCTSGFTFTDYYMSWVRQPPGKALEWLGFIRNKANGYTTEYSASVKGRFTISRDNSQSILYLQMNTLRAEDSATYYCARANWAFDYWGQGTTVTVSSK", "VL": "SGDRVSLSCRASQSISNYLHWYQQKSHESPRLLIKYASQSISGIPSRFSGSGSGTDFTLSINSVETEDFGMYFCQQSNSWPYTFGGGTKLEIKQ", "notes": "mouse monoclonal antibody against human CAPRIN-1 reacting with breast cancer cell surfaces"}, "B2": {"name": "SEQ ID NO: 8: recombinant polypeptide having the amino acid sequence shown by SEQ ID NO: 8 (canine CAPRIN-1), expressed in E. coli (protein, listed as Canis familiaris)", "chain": "MPSATSLSGSGSKSSGPPPPSGSSGSEAAAAAGAAGAAGAGAAAPASQHPATGTGAVQTEAMKQILGVIDKKLRNLEKKKGKLDDYQERMNKGERLNQDQLDAVSKYQEVTNNLEFAKELQRSFMALSQDIQKTIKKTARREQLMREEAEQKRLKTVLELQYVLDKLGDDEVRTDLKQGLNGVPILSEEELSLLDEFYKLADPERDMSLRLNEQYEHASIHLWDLLEGKEKSVCGTTYKALKEIVERVFQSNYFDSTHNHQNGLCEEEEAASAPTVEDQVAEAEPEPAEEYTEQSEVESTEYVNRQFMAETQFSSGEKEQVDEWTVETVEVVNSLQQQPQAASPSVPEPHSLTPVAQADPLVRRQRVQDLMAQMQGPYNFIQDSMLDFENQTLDPAIVSAQPMNPTQNMDMPQLVCPPVHSESRLAQPNQVPVQPEATQVPLVSSTSEGYTASQPLYQPSHATEQRPQKEPIDQIQATISLNTDQTTASSSLPAASQPQVFQAGTSKPLHSSGINVNAAPFQSMQTVFNMNAPVPPVNEPETLKQQNQYQASYNQSFSSQPHQVEQTDLQQEQLQTVVGTYHGSQDQPHQVTGNHQQPPQQNTGFPRSSQPYYNSRGVSRGGSRGARGLMNGYRGPANGFRGGYDGYRPSFSNTPNSGYTQSQFSAPRDYSGYQRDGYQQNFKRGSGQSGPRGAPRGRGGPPRPNRGMPQMNTQQVN"}, "B3": {"name": "SEQ ID NO: 6: recombinant polypeptide having the amino acid sequence shown by SEQ ID NO: 6 (canine CAPRIN-1), expressed in E. coli (protein, listed as Canis familiaris)", "chain": "MALSQDIQKTIKKTARREQLMREEAEQKRLKTVLELQYVLDKLGDDEVRTDLKQGLNGVPILSEEELSLLDEFYKLADPERDMSLRLNEQYEHASIHLWDLLEGKEKSVCGTTYKALKEIVERVFQSNYFDSTHNHQNGLCEEEEAASAPTVEDQVAEAEPEPAEEYTEQSEVESTEYVNRQFMAETQFSSGEKEQVDEWTVETVEVVNSLQQQPQAASPSVPEPHSLTPVAQADPLVRRQRVQDLMAQMQGPYNFIQDSMLDFENQTLDPAIVSAQPMNPTQNMDMPQLVCPPVHSESRLAQPNQVPVQPEATQVPLVSSTSEGYTASQPLYQPSHATEQRPQKEPIDQIQATISLNTDQTTASSSLPAASQPQVFQAGTSKPLHSSGINVNAAPFQSMQTVFNMNAPVPPVNEPETLKQQNQYQASYNQSFSSQPHQVEQTEGCRK"}}, "key": {"[1]": {"system": "U-87MG human glioma cells", "experimental": "10^6 cells of U-87MG human glioma cells (purchased from ATCC), which were verified to express the human CAPRIN-1 polypeptide, were collected in a 50-ml centrifuge tube, 100 μCi chromium-51 was added, and incubation was carried out at 37° C. for 2 hours. Thereafter, the cells were washed 3 times with RPMI medium (Gibco) containing 10% fetal bovine serum (hereafter referred to as “FBS,” Gibco) and added to a 96-well V-bottom plate in amounts of 10^3 cells/well. Further, 5×10^4 HLA-A0201+ and peptide epitope-reactive CD8+ T cells stimulated with the peptides suspended in RPMI medium containing 10% FBS were added, and culture was conducted at 37° C. in 5% CO2 for 4 hours. After the culture, the amount of chromium-51 in the culture supernatant released from the disrupted tumor cells was measured to determine the cytotoxic activity of the peptide-stimulated CD8+ T cells.\nThe cytotoxic activity used herein means the cytotoxic activity of the CD8+ T cells against the U-87MG cells or the JTK-LCL cells (i.e., target cells) determined according to the following equation*. Cytotoxic activity (%)=amount of chromium-51 released from U-87MG or JTK-LCL cell upon addition of CD8+ T cell/amount of chromium-51 released from target cell upon addition of 1N hydrochloric acid×100 Equation*"}, "[2]": {"system": "human breast cancer cell line, MDA-MB-231V", "assay": "Flow cytometry reactivity of monoclonal antibodies with breast cancer cell surface", "format": "cell-based", "settings": "10^6 MDA-MB-231V cells; control with medium instead of antibody", "procedure": "Subsequently, monoclonal antibodies having reactivity with the surfaces of the breast cancer cells expressing CAPRIN-1 were selected from among the above monoclonal antibodies. Specifically, 10^6 cells of human breast cancer cell line, MDA-MB-231V, were centrifuged in a 1.5-ml microcentrifuge tube, 100 μl of the hybridoma supernatants prepared above was added thereto, and the resultants were allowed to stand on ice for 1 hour. After the plate was washed with PBS, the FITC-labeled goat anti-mouse IgG antibody (Invitrogen) diluted 500-fold with PBS containing 0.1% fetal bovine serum was added, and the plate was allowed to stand on ice for 1 hour. After the plate was washed with PBS, fluorescence intensity was measured using the FACSCalibur (Becton Dickinson). Separately, as a control, the same procedure was carried out except for adding a medium instead of the antibodies. […] The sequence of the heavy-chain variable region of one of such monoclonal antibodies is shown by SEQ ID NO: 78 and that of the light-chain variable region thereof is shown by SEQ ID NO: 79."}, "[3]": {"system": "tumor of cancer-bearing dog (breast cancer)", "assay": "Antitumor evaluation of recombinant protein in cancer-bearing dog", "format": "in vivo", "settings": "dog with breast cancer; for tumor size: tumor about 86 mm^3 at administration, 100 μg with Freund's incomplete adjuvant, 3 times to regional lymph node", "procedure": "A cancer-bearing dog (breast cancer) having a tumor on the epidermis was subjected to evaluation of the antitumor effects of the recombinant protein purified above.\nThe recombinant polypeptide having the amino acid sequence shown by SEQ ID NO: 6 purified in the above-described manner (100 μg, 0.5 ml) was mixed with the equivalent amount of the Freund's incomplete adjuvant (Wako Pure Chemical Industries, Ltd.) to prepare a cancer therapeutic agent. The resulting agent was administered 3 times in total to the regional lymph node in the vicinity of the tumor, as an initial-administration, and 3 days and 7 days thereafter.\nAlso, 100 μg of canine interleukin 12 was administered together with the agent subcutaneously.\nFurther, a mixture of 0.5 ml of the recombinant polypeptide having the amino acid sequence shown by SEQ ID NO: 8 and 0.5 ml of the Freund's incomplete adjuvant was administered to another dog having breast cancer 3 times in total in the same manner as described above. Also, 100 μg of canine interleukin 12 was administered together with the agent subcutaneously."}, "[4]": {"system": "canine peripheral blood mononuclear cells", "assay": "ELISpot assay of IFNγ using peripheral blood mononuclear cells of administered dogs", "format": "cell-based, dog", "settings": "5×10^5 cells/well, restimulated with the administered polypeptide 24 hours, no spots before administration"}, "[5]": {"settings": "10 days after the administration"}, "[6]": {"settings": "30 days after the administration"}}, "note": "Residues, ends and D or L forms follow the SMILES beside them.", "data": [{"molecule": "CSCC[C@H](NC(=O)[C@@H](NC(=O)[C@H](CCC(N)=O)NC(=O)[C@H](CS)NC(=O)[C@H](CO)NC(=O)[C@H](Cc1ccc(O)cc1)NC(=O)[C@H](CO)NC(=O)[C@@H](N)CCCNC(=N)N)C(C)C)C(=O)N[C@@H](Cc1c[nH]cn1)C(=O)N[C@@H](CCC(=O)O)C(=O)O", "note": "[SEQ ID NO: 77] (H-RSYSCQVMHE-OH)", "values": [{"measurement": "cytotoxic activity of peptide-stimulated CD8+ T cells against U-87MG cells", "setting": "[1]", "value": "did not show cytotoxic activity"}, {"measurement": "cytotoxic activity of peptide-stimulated CD8+ T cells against JTK-LCL cells", "setting": "HLA-A24+ JTK-LCL cells", "value": "did not exhibit cytotoxicity"}]}, {"molecule": "B1", "values": [{"measurement": "reactivity with breast cancer cell surface (fluorescence intensity, FACS)", "setting": "[2]", "value": "reacts with the cancer cell surface"}]}, {"molecule": "B2", "values": [{"measurement": "tumor completely regressed, time after the initial administration", "setting": "[3]; with Freund's incomplete adjuvant, 3 times, plus 100 μg canine interleukin 12 subcutaneously, tumor at administration about 123 mm^3 (SEQ ID NO: 2), about 96 mm^3 (SEQ ID NO: 8)", "value": 27, "unit": "days"}, {"measurement": "number of IFNγ spots detected in peripheral blood mononuclear cells", "setting": "[4]; [5]", "value": 32, "unit": "spots"}, {"measurement": "number of IFNγ spots detected in peripheral blood mononuclear cells", "setting": "[4]; [6]", "value": 117, "unit": "spots"}]}, {"molecule": "B3", "values": [{"measurement": "tumor size", "setting": "[3]; 10 days after the initial administration", "value": 55, "unit": "mm^3"}, {"measurement": "tumor size", "setting": "[3]; 20 days after the initial administration", "value": 30, "unit": "mm^3"}, {"measurement": "tumor size", "setting": "[3]; 30 days after the initial administration", "value": 20, "unit": "mm^3"}, {"measurement": "number of IFNγ spots detected in peripheral blood mononuclear cells", "setting": "[4]; [5]", "value": 13, "unit": "spots"}, {"measurement": "number of IFNγ spots detected in peripheral blood mononuclear cells", "setting": "[4]; [6]", "value": 82, "unit": "spots"}]}]}
